Our source for the kobs of Pchlide reduction measured as Chlide formation (with BchNB, Pchlide and ATP) values is article PMC7948495, “The flexible N-terminus of BchL autoinhibits activity through interaction with its [4Fe-4S] cluster and released upon ATP binding” (The Journal of Biological Chemistry, 2020).

The target of the test is BchNB (NB-protein of DPOR) from Rhodobacter sphaeroides (Rhodobacter sphaeroides).

“linked-BchL (two BchL subunits expressed as a single polypeptide, joined by a flexible linker) (enzyme)” returned a kobs of Pchlide reduction measured as Chlide formation (with BchNB, Pchlide and ATP) of 0.0148 µM/min.
